B1: CPEB3 Ribozyme (parent)
chain: GGGGGCCACAGCAGAAGCGUUCACGUCGCGGCCCCUGUCAGAUUCUGGUGAAUCUGCGAAUUCUGCUGU

Our source for the self-cleavage values is the RNAGym collection of RNA variant scans (doi:10.7554/elife.80360).

The series covers variants of B1. The series can be described thus: self-cleavage, relative activity (ratio to wild type); higher = more cleavage; co-transcriptional.
GGGGGCCACAGCAGAAGCGUUCACGUCGCGGCCUCUGUCAAAUUCUGGUGAAUCUGCGAAUUCUGCUGU [C34U G41A]: the self-cleavage was determined as 0.828.
On to GGGGGCCACAGCAGAAGCGUUCACGUCGCGGCCUCUGUCAGAUUCUGGUGAAUCUGCGAAUGCUGCUGU [C34U U62G], for which the self-cleavage was found to be 0.892.
Regarding GGGGGCCACAGCAGAAGCGUUCACGUCGCGGCCUCUGUCAGAUUCUGGUGAAUCUGCGAAUACUGCUGU [C34U U62A], the self-cleavage worked out at 0.921.
On to GGGGGCCACAGCAGAAGCGUUCACGUCGCGGCCCAUGUCAGAUUCUUGUGAAUCUGCGAAUUCUGCUGU [C35A G47U], for which the self-cleavage turned out to be 0.259.
As for GGGGGCCACAGCAGAAGCGUUCACGUCGCGGCCCAUGUCAGAUUCUCGUGAAUCUGCGAAUUCUGCUGU [C35A G47C], the self-cleavage worked out at 0.189.
For GGGGGCCACAGCAGAAGCGUUCACGUCGCGGCCCAUGUCAGAUUCUAGUGAAUCUGCGAAUUCUGCUGU [C35A G47A] the value was 0.292; for GGGGGCCACAGCAGAAGCGUUCACGUCGCGGCCUCUGUCAGAUUCUGGUGAAUCUGCGAAUUCCGCUGU [C34U U64C], 0.971.
Regarding GGGGGCCACAGCAGAAGCGUUCACGUCGCGGCCUCUGUCAGAUUCUGGUGAAUCUGCGAAUUCGGCUGU [C34U U64G], the self-cleavage is 0.928.
Regarding GGGGGCCACAGCAGAAGCGUUCACGUCGCGGCCUCUGUCAGAUUCUGGUGAAUCUUCGAAUUCUGCUGU [C34U G56U], the self-cleavage is 0.975.
With GGGGGCCACAGCAGAAGCGUUCACGUCGCGGCCUCUGUCAGAUUCUGGUGAAUCUACGAAUUCUGCUGU [C34U G56A], the self-cleavage worked out at 0.955.
For the variant GGGGGCCACAGCAGAAGCGUUCACGUCGCGGCCUCUGUCAGAUUCUGGUGAAUCUCCGAAUUCUGCUGU [C34U G56C], the self-cleavage came out at 0.792.
With GGGGGCCACAGCAGAAGCGUUCACGUCGCGGCCUCUGUCAGAUUCUGGUGAAGCUGCGAAUUCUGCUGU [C34U U53G], the self-cleavage is 0.728.
For GGGGGCCACAGCAGAAGCGUUCACGUCGCGGCCUCUGUCAGAUUCUGGUGAACCUGCGAAUUCUGCUGU [C34U U53C] the value was 0.943; for GGGGGCCACAGCAGAAGCGUUCACGUCGCGGCCUCUGUCAGAUUCUGGUGAAUCUGCGAAUUCUCCUGU [C34U G65C], 0.682.
As for GGGGGCCACAGCAGAAGCGUUCACGUCGCGGCCUCUGUCAGAUUCUGGUGAAUCUGCGAAUUCUACUGU [C34U G65A], the figure is 0.919; as for GGGGGCCACAGCAGAAGCGUUCACGUCGCGGCCUCUGUCAGAUCCUGGUGAAUCUGCGAAUUCUGCUGU [C34U U44C], 0.938; as for GGGGGCCACAGCAGAAGCGUUCACGUCGCGGCCUCUGUCAGAUACUGGUGAAUCUGCGAAUUCUGCUGU [C34U U44A], 0.963.
As for GGGGGCCACAGCAGAAGCGUUCACGUCGCGGCCUCUGUCAGAUGCUGGUGAAUCUGCGAAUUCUGCUGU [C34U U44G], the figure is 0.859; as for GGGGGCCACAGCAGAAGCGUUCACGUCGCGGCCCAUGUCAGAUUCUGGUGCAUCUGCGAAUUCUGCUGU [C35A A51C], 0.255.
GGGGGCCACAGCAGAAGCGUUCACGUCGCGGCCCAUGUCAGAUUCUGGUGGAUCUGCGAAUUCUGCUGU [C35A A51G]: the self-cleavage amounted to 0.234.
Take GGGGGCCACAGCAGAAGCGUUCACGUCGCGGCCUCUGUCAGAUUCUGGUGAAUCUGCGAAUUCUGCUCU [C34U G68C]: the self-cleavage is 0.962.
Turning to GGGGGCCACAGCAGAAGCGUUCACGUCGCGGCCUCUGUCAGAUUCUGGUGAAUCUGCGAAUUCUGCUAU [C34U G68A], the self-cleavage stood at 1.01.
As for GGGGGCCACAGCAGAAGCGUUCACGUCGCGGCCCAUGUCAGCUUCUGGUGAAUCUGCGAAUUCUGCUGU [C35A A42C], the figure is 0.229.
With GGGGGCCACAGCAGAAGCGUUCACGUCGCGGCCCAUGUCAGGUUCUGGUGAAUCUGCGAAUUCUGCUGU [C35A A42G], the self-cleavage came to 0.281.
On to GGGGGCCACAGCAGAAGCGUUCACGUCGCGGCCCAUGUCAGUUUCUGGUGAAUCUGCGAAUUCUGCUGU [C35A A42U], for which the self-cleavage came out at 0.19.
For GGGGGCCACAGCAGAAGCGUUCACGUCGCGGCCCAUGUCAGAUUCUGGUGAAUCUGCGCAUUCUGCUGU [C35A A59C] the value was 0.204; for GGGGGCCACAGCAGAAGCGUUCACGUCGCGGCCCAUGUCAGAUUCUGGUGAAUCUGCGGAUUCUGCUGU [C35A A59G], 0.34.
As for GGGGGCCACAGCAGAAGCGUUCACGUCGCGGCCCAUGUCAGAUUCUGGUGAAUCUGCGUAUUCUGCUGU [C35A A59U], the figure is 0.227; as for GGGGGCCACAGCAGAAGCGUUCACGUCGCGGCCCAUGUCAGAUUCUGGUGACUCUGCGAAUUCUGCUGU [C35A A52C], 0.316.
In the case of GGGGGCCACAGCAGAAGCGUUCACGUCGCGGCCCAUGUCAGAUUCUGGUGAGUCUGCGAAUUCUGCUGU [C35A A52G], the self-cleavage was determined as 0.247.
For the variant GGGGGCCACAGCAGAAGCGUUCACGUCGCGGCCUCUGUCAGAUUCAGGUGAAUCUGCGAAUUCUGCUGU [C34U U46A], the self-cleavage was 1.
Take GGGGGCCACAGCAGAAGCGUUCACGUCGCGGCCUCUGUCAGAUUCGGGUGAAUCUGCGAAUUCUGCUGU [C34U U46G]: the self-cleavage stood at 0.988.
For GGGGGCCACAGCAGAAGCGUUCACGUCGCGGCCUCUGUCAGAUUCCGGUGAAUCUGCGAAUUCUGCUGU [C34U U46C] the value was 0.977.
Regarding GGGGGCCACAGCAGAAGCGUUCACGUCGCGGCCUCUGUCAGAUUCUGGUGAAUCUGCGAAUUCUGCUGA [C34U U69A], the self-cleavage was 1.01.
GGGGGCCACAGCAGAAGCGUUCACGUCGCGGCCUCUGUCAGAUUCUGGUGAAUCUGCGAAUUCUGCUGC [C34U U69C]: the self-cleavage came to 1.07.
Regarding GGGGGCCACAGCAGAAGCGUUCACGUCGCGGCCUCUGUCAGAUUCUGGUGAAUCUGCGAAUUCUGCUGG [C34U U69G], the self-cleavage stood at 1.04.
As for GGGGGCCACAGCAGAAGCGUUCACGUCGCGGCCCAUGUCAGAUUCUGGUGAAUCUGCGAAUUCUACUGU [C35A G65A], the figure is 0.299; as for GGGGGCCACAGCAGAAGCGUUCACGUCGCGGCCUCUGUCAGAUUCUGGCGAAUCUGCGAAUUCUGCUGU [C34U U49C], 0.998.
Take GGGGGCCACAGCAGAAGCGUUCACGUCGCGGCCUCUGUCAGAUUCUGGGGAAUCUGCGAAUUCUGCUGU [C34U U49G]: the self-cleavage was found to be 0.985.
